According to article PMC7311918:

Experiments:
[1] = target: SARS-CoV S 2P trimer (S ectodomain, residues 12-1193) (SARS-CoV) (UniProt P59594); experiment: SEC-MALS
[2] = target: MERS-CoV S 2P trimer (S ectodomain, residues 19-1294) (MERS-CoV) (UniProt K9N5Q8); experiment: SEC-MALS

Substance | stoichiometry N [1] | stoichiometry N [2]
SARS-CoV S 2P trimer (S ectodomain, residues 12-1193) (from UniProt P59594 12-1193) (natural protein) | 3 | –
MERS-CoV S 2P trimer (S ectodomain, residues 19-1294) (from UniProt K9N5Q8 19-1294) (natural protein) | – | 3
